From the supplement of paper PMC12042874
± gives the uncertainty stated by the source.

Test: amyloid nucleation score (Sup35N fusion, yeast selection) (log enrichment); library NNK1; higher = more nucleation; inactive = no reads after selection
How it was run: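 Sup35N was fused to peptides of 20 random codons and expressed in psi-negative yeast, which were induced with 100 μM copper sulfate for 24 hours and then grown on medium lacking adenine and uracil for 7 days at 30°C. Plasmid inserts from input and output were sequenced on Illumina. The nucleation score is the DiMSum log enrichment of output over input reads, centred on the mode score of non-aggregating sequences. Sequences with under 100 input reads were left out, and random libraries had three technical output replicates.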

Substance | amyloid nucleation score
LYSLATIDNYMPWCQGSSGS | inactive
LYVFHRRYYWANYDDRYPLP | 0.613 ± 0.48
MCGFF | -0.178 ± 0.57
MCLAMSIFDKTENK | -0.731 ± 0.73
MCLFENMFDHFSGSLQSHGG | 0.318 ± 0.27
MCYVRMTFGTRDCHERVSLS | inactive
MDARKTGTDNWRTS | -0.202 ± 0.32
MDQFDLGSYSCASFQDTPAL | 1.39 ± 0.18
MDRNFSILTF | inactive
MDVIFGLMS | 0.729 ± 0.51
MEKYYGQLLKDY | 0.224 ± 0.29
MFDTRDRMAALTFVKRMWCK | inactive
MFFSSIYVAYYGLLLIYSYM | inactive
MFNKVSLSVWASFVWKIIIH | -0.654 ± 0.83
MFSNILHAHLRAWA | 0.53 ± 0.27
MFSRF | 0.607 ± 0.79
MFSSVLIWKY | 1.12 ± 0.56
MGAVKH | -0.017 ± 0.3
MGDSISVFMKSRFCVCTWGG | inactive
MGGRSPMELAISRVVVVVKW | inactive
MGLFFERSVKCSLF | -0.946 ± 1.1
MGLSLPSFW | -0.516 ± 1.7

Substance | amyloid nucleation score
MGNHCLTR | 1.12 ± 0.58
MGQGLCPRSYMFLVCELIVF | 0.818 ± 0.43
MHISWPYYRHDIVRRKSCSA | 0.011 ± 0.29
MINTTMRSDRRNNWLG | 2.94 ± 0.064
MIRPVFLVFVYMLFCLGNCT | 0.383 ± 0.28
MISFCSSWKLEQYEWWRRNL | 1.35 ± 0.32
MITWMYASWYNRPVLVYQFW | 0.233 ± 0.28
MKVIDFVGFPFMGWRKWKTW | -0.063 ± 0.35
MLCFSLVYNGREGYEINLLH | -0.552 ± 0.31
MLGLWIVARLVLSVDSQRVE | inactive
MLHICCFQSVHLMDWSSH | -0.144 ± 0.67
MLHYAWVGLSVNDMVLPEMC | -0.78 ± 0.67
MLLIVPLFDSEVVWPGVVWT | -0.235 ± 0.66
MLLSH | 4.34 ± 0.056
MLLWVWMEFY | 0.991 ± 0.33
MLNELWVQRWINLSLKYDNQ | 0.957 ± 0.45
MLPQSSSRQLRVGCASLCNM | -0.148 ± 0.6
MLRFRCVRQP | 0.102 ± 0.35
MLRTAMKCWSTSMGDCLEAF | 0.619 ± 0.48
MLSGP | -0.161 ± 0.67
MLWFSGCPRGGQRGVCESQG | 0.284 ± 0.55
MMLLYCRLIWSPISDRICQF | -0.498 ± 0.42

Substance | amyloid nucleation score
MMVFKVSFKVIKVT | -0.07 ± 0.86
MMYSIVRMLAFNAWSMR | 0.681 ± 0.49
MNDVNLFMEYNKSFYVDFYM | 1.61 ± 0.15
MNGYLRLHSDTNCSCC | inactive
MNRHGYHNIWWYTTSHGLYT | -1.05 ± 2.7
MNTLYCWGKCGLVTSLVGLI | 0.059 ± 0.73
MNYVSMHDYYRVVH | 0.128 ± 0.61
MPGLWVFASALTQQEGTLEM | -0.251 ± 0.79
MPKCSTLNTKVFRPMVWFSV | 1.43 ± 0.29
MPTRKTMDGYASIEF | -0.486 ± 0.41
MPVFSFLWPMKDMPHKVLS | 0.364 ± 0.36
MQNMNEVSIINVAERVVNGG | inactive
MQSLRLTESSGPFSLYFAFI | -0.227 ± 0.81
MRAEVALFCGNSASVVCGAW | -0.221 ± 0.34
MREELRGSETG | -0.685 ± 0.63
MRFYAMGRDVYICCDGNKIL | 5.07 ± 0.066
MRIHCVN | -0.529 ± 2.1
MRISMSVSLLFSYSQYVKLE | -0.238 ± 0.9
MRKVYNEWLKTNYYKHMNRV | 0.452 ± 0.51
MRLHLGWNYEMHRKNRALSI | -0.312 ± 1.4
